Assay results: paper doi:10.1101/2025.09.26.678928

Biological target: UhGpe1 (U. hordei)

| reporter activity in S. cerevisiae biosensor assays, percent activity [%] | Molecule |
| --- | --- |
| 45 | SrPit2 peptide corresponding to the U. maydis activating motif |
| 30 | WWFGFTGSL [Pit2 core peptide (…)] |
